Reference: patent publication US20040063627A1 (BROWN UNIVERSITY RESEARCH FOUNDATION, published 2004)

Molecular target: T1, QE-Bgn (bacterially expressed recombinant human biglycan core) (human, UniProt P21810 38-368)
T1 construct: Produced in E. coli M15[pREP4]; contains no chondroitin sulfate side chains; tested as lysate of induced bacteria on a blot; also called QE-BIG; bacterially-expressed biglycan
T1 sequence: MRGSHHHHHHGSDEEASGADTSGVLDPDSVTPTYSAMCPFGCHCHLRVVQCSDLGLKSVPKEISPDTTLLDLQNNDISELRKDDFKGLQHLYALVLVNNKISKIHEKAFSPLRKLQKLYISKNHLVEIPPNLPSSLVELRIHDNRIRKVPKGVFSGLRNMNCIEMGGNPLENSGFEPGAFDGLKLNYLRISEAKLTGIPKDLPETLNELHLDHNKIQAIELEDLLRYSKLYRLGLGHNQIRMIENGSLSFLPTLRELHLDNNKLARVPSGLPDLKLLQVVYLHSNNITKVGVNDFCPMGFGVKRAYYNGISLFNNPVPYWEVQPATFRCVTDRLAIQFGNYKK
Test: dystroglycan blot overlay on lysate of induced bacteria (FIG. 7)

binding result: no binding
B1: α-dystroglycan (dystroglycan as named in the overlay assays; fragment not named at the place) (receptor, human, UniProt Q14118 345-653, looked up)
chain: PAIAPPTETMAPPVRDPVPGKPTVTIRTRGAIIQTPTLGPIQPTRVSEAGTTVPGQIRPTMTIPGYVEPTAVATPPTTTTKKPRVSTPKPATPSTDSTTTTTRRPTKKPRTPRPVPRVTTKVSITRLETASPPTRIRTTTSGVPRGGEPNQRPELKNHIDRVDAWVGTYFEVKIPSDTFYDHEDTTTDKLKLTLKLREQQLVGEKSWVQFNSNSQLMYGLPDSSHVGKHEYFMHATDKGGLSAVDAFEIHVHRRPQGDRAPARFKAKFVGDPALVLNDIHKKIALVKKLAFAFGDRNCSTITLQNITRG
notes: also called alpha-dystroglycan
